Measurements taken from article PMC5636114 (PLoS ONE, 2017).

B1: FLASH NTD C54S/C83A/N101A/L104A/N108A, C-terminally hexahistidine-tagged (domain or fragment, human, UniProt Q9UKL3 51-137, looked up)
chain: SRNSLDLYEEILTEEGTAKEATYNDLQVEYGKAQLQMKELMKKFKEIQTQAFSAINEAQSLKKNISALIKTARVEINRKDEEISNLH
notes: FLASH N-terminal domain, human, residues 51-137, C54S/C83A/N101A/L104A/N108A; also called N101A/L104A/N108A mutant
B2: FLASH NTD C54S/C83A/L118A/I119A, C-terminally hexahistidine-tagged (domain or fragment, human, UniProt Q9UKL3 51-137, looked up)
chain: SRNSLDLYEEILTEEGTAKEATYNDLQVEYGKAQLQMKELMKKFKEIQTQNFSLINENQSLKKNISAAAKTARVEINRKDEEISNLH
notes: FLASH N-terminal domain, human, residues 51-137, L118A/I119A in the background of C54S/C83A; also called FLASH NTD L118A/I119A mutant
B3: FLASH NTD C54S/C83A/Y73A/L76A/Y80A, C-terminally hexahistidine-tagged (domain or fragment, human, UniProt Q9UKL3 51-137, looked up)
chain: SRNSLDLYEEILTEEGTAKEATANDAQVEAGKAQLQMKELMKKFKEIQTQNFSLINENQSLKKNISALIKTARVEINRKDEEISNLH
notes: also called Y73A/L76A/Y80A mutant
B4: FLASH NTD C54S/C83A/R128A/K129A/D130A, C-terminally hexahistidine-tagged (domain or fragment, human, UniProt Q9UKL3 51-137, looked up)
chain: SRNSLDLYEEILTEEGTAKEATYNDLQVEYGKAQLQMKELMKKFKEIQTQNFSLINENQSLKKNISALIKTARVEINAAAEEISNLH
notes: also called R128A/K129A/D130A mutant
B5: FLASH NTD C54S/C83A/K88A/K92A/K95A, C-terminally hexahistidine-tagged (domain or fragment, human, UniProt Q9UKL3 51-137, looked up)
chain: SRNSLDLYEEILTEEGTAKEATYNDLQVEYGKAQLQMAELMAKFAEIQTQNFSLINENQSLKKNISALIKTARVEINRKDEEISNLH
notes: also called K88A/K92A/K95A mutant

What was measured:
[1] = molecular target: the molecule itself; assay: AUC; sedimentation velocity (42,000 rpm) and equilibrium, 20 C, 20 mM Tris (pH 8.5), 250 mM NaCl, 5 mM DTT (low-salt condition), 0.05 to 1 mg/ml (complex also 8 mg/ml); global fit by SEDPHAT: monomer-dimer self-association (dimer to monomers) or A + B <-> AB hetero-association
[2] = molecular target: the molecule itself; assay: SEC; Superose 12 analytical gel filtration of nickel-purified protein, 20 mM Tris (pH 7.5), 250 mM NaCl, 5 mM DTT, 0.5 mL/min; migration compared with the C54S/C83A control

| Protein | stoichiometry N [1] | binding result [2] |
| --- | --- | --- |
| B1 | ~3 | – |
| B2 | – | binds |
| B3 | – | binds |
| B4 | – | binds |
| B5 | – | binds |
